Measured values reported in patent US20060104971A1, “Multivalent lymphotoxin beta receptor agonists and therapeutic uses thereof” (Biogen Idec MA Inc., priority 2002, published 2006).

Molecular target: lymphotoxin beta receptor on the surface of HT29 cells (human) (UniProt P36941)
Assay: cell-based or functional assay

Sequence of lymphotoxin beta receptor on the surface of HT29 cells (human) (P36941 31-435): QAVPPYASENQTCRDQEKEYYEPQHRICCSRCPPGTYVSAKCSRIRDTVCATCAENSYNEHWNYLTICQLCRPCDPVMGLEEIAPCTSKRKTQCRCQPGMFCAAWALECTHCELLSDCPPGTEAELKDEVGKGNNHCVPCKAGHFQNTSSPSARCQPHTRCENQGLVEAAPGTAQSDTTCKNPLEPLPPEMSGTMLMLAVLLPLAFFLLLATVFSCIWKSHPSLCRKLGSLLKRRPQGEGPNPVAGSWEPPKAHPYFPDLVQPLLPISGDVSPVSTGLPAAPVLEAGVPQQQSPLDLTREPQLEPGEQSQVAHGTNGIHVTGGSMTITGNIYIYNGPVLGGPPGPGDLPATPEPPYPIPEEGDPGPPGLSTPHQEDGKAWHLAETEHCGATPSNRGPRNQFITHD

Row | Substance | minimum A450 (plateau of HT29 cell growth, MTT, with interferon gamma)
1 | humanized BHA10 antibody | 0.9 A450
2 | humanized CBE11 antibody | 0.8 A450
